The target of assay [1] is T1, 4H796-bN.
T1 chain: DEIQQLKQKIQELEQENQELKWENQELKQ
The assay can be described thus: two-hybrid library CCNG1.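 Also: natural log of median RNA to DNA barcode read ratio; higher means stronger binding.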

Assay [2] addresses T2, 4H949-bN.
T2 chain: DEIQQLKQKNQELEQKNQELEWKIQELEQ
The assay can be described thus: two-hybrid library CCNG1.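 Also: natural log of median RNA to DNA barcode read ratio; higher means stronger binding.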

The target of assay [3] is T3, 4H932-bN.
T3 chain: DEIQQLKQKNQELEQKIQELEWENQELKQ
The assay is described as follows: two-hybrid library CCNG1.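 Also: natural log of median RNA to DNA barcode read ratio; higher means stronger binding.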

For assay [4], the target named is T4, 4H730-bN.
T4 chain: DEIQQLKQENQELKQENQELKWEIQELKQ
The assay is described as follows: two-hybrid library CCNG1.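 Also: natural log of median RNA to DNA barcode read ratio; higher means stronger binding.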

Assay [5] addresses T5, 4H662-AA.
T5 chain: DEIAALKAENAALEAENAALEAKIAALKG
The assay is described as follows: two-hybrid library CCmax.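 Also: natural log of median RNA to DNA barcode read ratio; higher means stronger binding.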 The following applies: mean of both orientations.

In assay [6] the target is T6, 4H3922-AA.
T6 chain: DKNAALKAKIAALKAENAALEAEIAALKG
The assay is described as follows: two-hybrid library CCmax.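 Also: natural log of median RNA to DNA barcode read ratio; higher means stronger binding.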

The target in assay [7] is T7, 4H4033-AA.
T7 chain: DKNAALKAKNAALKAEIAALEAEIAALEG
The assay can be described thus: two-hybrid library CCmax.

The target of assay [8] is T8, 4H481-AA.
T8 chain: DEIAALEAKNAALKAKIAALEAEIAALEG
The assay can be described thus: two-hybrid library CCmax. The following applies: mean of both orientations.

Assay [9] addresses T9, 4H55-AA.
T9 chain: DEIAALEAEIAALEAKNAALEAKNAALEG
The assay is described as follows: two-hybrid library CCmax. The following applies: mean of both orientations.

Assay [10] addresses T10, 4H949-bH.
T10 chain: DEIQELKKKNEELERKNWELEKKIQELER
The assay is described as follows: two-hybrid library CCNG1.

Assay [11] concerns the target T11, 4H730-bH.
T11 chain: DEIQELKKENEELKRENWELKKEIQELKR
The assay is described as follows: two-hybrid library CCNG1.

Assay [12] concerns the target T12, 4H932-bH.
T12 chain: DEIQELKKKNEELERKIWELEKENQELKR
The assay is described as follows: two-hybrid library CCNG1.

The target of assay [13] is T13, 4H796-bH.
T13 chain: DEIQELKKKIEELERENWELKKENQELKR
The assay is described as follows: two-hybrid library CCNG1.

Assay [14] addresses T14, 4H3666-AA.
T14 chain: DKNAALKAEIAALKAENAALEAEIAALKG
The assay is described as follows: two-hybrid library CCmax. The following applies: mean of both orientations.

Assay [15] has as its target T15, 4H656-AA.
T15 chain: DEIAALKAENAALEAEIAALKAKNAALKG
The assay is described as follows: two-hybrid library CCmax. The following applies: mean of both orientations.

The target of assay [16] is T16, 4H3920-AA.
T16 chain: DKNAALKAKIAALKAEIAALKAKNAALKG
The assay can be described thus: two-hybrid library CCmax. To be noted: mean of both orientations.

The target of assay [17] is T17, 4H3939-AA.
T17 chain: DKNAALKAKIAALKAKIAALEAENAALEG
The assay is described as follows: two-hybrid library CCmax. The following applies: mean of both orientations.

Assay [18] deals with T18, 4H3121-AA.
T18 chain: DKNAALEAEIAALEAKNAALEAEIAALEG
The assay can be described thus: two-hybrid library CCmax. To be noted: mean of both orientations.

In assay [19] the target is T19, 4H3446-AA.
T19 chain: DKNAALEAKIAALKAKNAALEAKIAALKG
The assay is described as follows: two-hybrid library CCmax. To be noted: mean of both orientations.

In assay [20] the target is T20, 4H3591-AA.
T20 chain: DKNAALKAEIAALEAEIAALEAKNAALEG
The assay can be described thus: two-hybrid library CCmax. To be noted: mean of both orientations.

The target of assay [21] is T21, 4H478-AA.
T21 chain: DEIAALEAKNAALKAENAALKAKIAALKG
The assay can be described thus: two-hybrid library CCmax. To be noted: mean of both orientations.

Assay [22] addresses T22, 4H497-AA.
T22 chain: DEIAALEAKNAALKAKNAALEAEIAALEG
The assay is described as follows: two-hybrid library CCmax. To be noted: mean of both orientations.

The target in assay [23] is T23, 4H971-AA.
T23 chain: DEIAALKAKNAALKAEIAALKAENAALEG
The assay can be described thus: two-hybrid library CCmax. The following applies: mean of both orientations.

The target of assay [24] is T24, 4H3102-AA.
T24 chain: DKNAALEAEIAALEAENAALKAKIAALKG
The assay is described as follows: two-hybrid library CCmax.

Assay [25] concerns the target T25, 4H428-AA.
T25 chain: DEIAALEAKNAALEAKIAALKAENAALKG
The assay can be described thus: two-hybrid library CCmax. To be noted: mean of both orientations.

For assay [26], the target named is T26, 4H675-AA.
T26 chain: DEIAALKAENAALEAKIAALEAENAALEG
The assay is described as follows: two-hybrid library CCmax. To be noted: mean of both orientations.

Assay [27] addresses T27, 4H3417-AA.
T27 chain: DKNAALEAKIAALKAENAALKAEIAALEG
The assay is described as follows: two-hybrid library CCmax. The following applies: mean of both orientations.

For assay [28], the target named is T28, 4H3628-AA.
T28 chain: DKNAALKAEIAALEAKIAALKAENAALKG
The assay can be described thus: two-hybrid library CCmax. To be noted: mean of both orientations.

Assay [29] addresses T29, 4H3709-AA.
T29 chain: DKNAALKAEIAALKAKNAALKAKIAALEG
The assay is described as follows: two-hybrid library CCmax. To be noted: mean of both orientations.

Assay [30] addresses T30, 4H391-AA.
T30 chain: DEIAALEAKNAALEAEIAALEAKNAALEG
The assay can be described thus: two-hybrid library CCmax. The following applies: mean of both orientations.

In assay [31] the target is 4H_GCN4. The assay is described as follows: two-hybrid library CCmax.
Chain of 4H_GCN4 (chain, as listed by the source): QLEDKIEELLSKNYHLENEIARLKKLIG
Assay [32] addresses T31, 4H_APH.
T31 chain: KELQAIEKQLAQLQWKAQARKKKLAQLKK
The assay is described as follows: two-hybrid library CCmax. The following applies: mean of both orientations.

The target of assay [33] is T32, 4H895-AA.
T32 chain: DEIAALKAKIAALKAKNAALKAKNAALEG
The assay is described as follows: two-hybrid library CCmax.

The target in assay [34] is GCN2_T. The assay can be described thus: two-hybrid library CCmax. To be noted: mean of both orientations.
For assay [35], the target named is T33, 4H_BCR.
T33 chain: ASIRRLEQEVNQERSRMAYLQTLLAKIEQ
The assay is described as follows: two-hybrid library CCmax. The following applies: mean of both orientations.

The target in assay [36] is T34, 4H850-bN.
T34 chain: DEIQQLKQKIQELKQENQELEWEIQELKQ
The assay can be described thus: two-hybrid library CCNG1.

The target of assay [37] is T35, 4H619-bN.
T35 chain: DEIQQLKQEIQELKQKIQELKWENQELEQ
The assay can be described thus: two-hybrid library CCNG1.

The target of assay [38] is T36, 4H906-bN.
T36 chain: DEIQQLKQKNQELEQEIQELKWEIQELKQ
The assay can be described thus: two-hybrid library CCNG1.

Like-named read-outs stand apart in the source and are kept apart here.

Regarding DEIQQLKQENQELKQENQELKWEIQELKQ [4H730-bN], the interaction score in [1] is -1.29; in [2] it was -0.718; in [3], -0.353; in assay [4], 1.55.

On to DKNAALKAKIAALKAENAALEAEIAALKG [4H3922-AA], for which the interaction score in [5] was -1.16; in [6], -0.436; in [7] (mean of both orientations) it was -0.495; in assay [8], 1.69; in [9] it was -1.32.

Consider DEIQELKKENEELKRENWELKKEIQELKR [4H730-bH], for which the interaction score was 0.0896 in [10], 1.5 in [11], -1.05 in assay [12] and -0.301 in [13].

Turning to DKNAALEAEIAALEAENAALKAKIAALKG [4H3102-AA], the interaction score in assay [14] is 1.73; in assay [15], 0.534; in assay [16], -1.16; in [17], -1.39; in [18] it was -0.0964; in [19], 0.0866. The interaction score in assay [20] is -1.16; in assay [21] it was 1.81; in assay [22], -1.18; in [23], -0.422; in assay [24], 1.69; in assay [25] it was 0.651. The interaction score in assay [26] is -0.00286; in assay [27], 2.29; in [28], -0.57; in assay [29], 1.43; in assay [30], -0.9.

With DEIAALKAKIAALKAKNAALKAKNAALEG [4H895-AA], the interaction score in assay [31] was -1.86; in assay [32], -1.22; in [33], -1.19; in assay [34] it was -1.25; in assay [35] it was -2.06.

With DKNAALKAKNAALKAEIAALEAEIAALEG [4H4033-AA], the interaction score in [5] was 1.17; in assay [7], -1.66; in [8], -1.15; in assay [9] it was -1.39.

Turning to DEIQQLKQEIQELKQKIQELKWENQELEQ [4H619-bN], the interaction score in assay [36] is -0.223; in assay [37] it was 1.24; in [38], -0.494.

These data come from publication PMC10397247.
